In general, Kd refers to the equilibrium constant for the complex coming apart. Read a high Kd as weaker binding. Usually koff stands for the first-order rate constant of dissociation. A higher koff goes with a short-lived complex. Usually kon stands for the rate constant with which the complex forms. Low values mean slower complex formation, high ones faster complex formation.

Here are results for four molecules from patent publication US20240376185A1 (SMIVET B V, published 2024).

For experiment [1], the target named is T1, tetanus neurotoxin (TeNT), authentic tetanus holotoxin (Clostridium tetani, UniProt P04958 2-1315). Kind of experiment: GT1b-TeNT inhibition ELISA.
T1 sequence (P04958 2-457 limits assumed, chain 1 of 2): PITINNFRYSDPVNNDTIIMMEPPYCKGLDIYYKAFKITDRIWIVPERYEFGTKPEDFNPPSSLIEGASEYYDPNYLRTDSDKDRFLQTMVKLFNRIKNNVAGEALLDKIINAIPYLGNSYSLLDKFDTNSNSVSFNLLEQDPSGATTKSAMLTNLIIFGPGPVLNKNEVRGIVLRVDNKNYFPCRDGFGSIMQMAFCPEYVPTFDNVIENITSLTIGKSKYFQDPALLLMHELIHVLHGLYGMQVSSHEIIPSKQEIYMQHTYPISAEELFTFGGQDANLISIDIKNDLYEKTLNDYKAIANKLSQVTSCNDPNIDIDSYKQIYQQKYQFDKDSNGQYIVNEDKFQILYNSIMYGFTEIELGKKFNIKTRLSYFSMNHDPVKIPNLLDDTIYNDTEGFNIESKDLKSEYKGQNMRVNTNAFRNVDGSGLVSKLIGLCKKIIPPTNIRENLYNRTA
T1 sequence (P04958 458-1315 limits assumed, chain 2 of 2): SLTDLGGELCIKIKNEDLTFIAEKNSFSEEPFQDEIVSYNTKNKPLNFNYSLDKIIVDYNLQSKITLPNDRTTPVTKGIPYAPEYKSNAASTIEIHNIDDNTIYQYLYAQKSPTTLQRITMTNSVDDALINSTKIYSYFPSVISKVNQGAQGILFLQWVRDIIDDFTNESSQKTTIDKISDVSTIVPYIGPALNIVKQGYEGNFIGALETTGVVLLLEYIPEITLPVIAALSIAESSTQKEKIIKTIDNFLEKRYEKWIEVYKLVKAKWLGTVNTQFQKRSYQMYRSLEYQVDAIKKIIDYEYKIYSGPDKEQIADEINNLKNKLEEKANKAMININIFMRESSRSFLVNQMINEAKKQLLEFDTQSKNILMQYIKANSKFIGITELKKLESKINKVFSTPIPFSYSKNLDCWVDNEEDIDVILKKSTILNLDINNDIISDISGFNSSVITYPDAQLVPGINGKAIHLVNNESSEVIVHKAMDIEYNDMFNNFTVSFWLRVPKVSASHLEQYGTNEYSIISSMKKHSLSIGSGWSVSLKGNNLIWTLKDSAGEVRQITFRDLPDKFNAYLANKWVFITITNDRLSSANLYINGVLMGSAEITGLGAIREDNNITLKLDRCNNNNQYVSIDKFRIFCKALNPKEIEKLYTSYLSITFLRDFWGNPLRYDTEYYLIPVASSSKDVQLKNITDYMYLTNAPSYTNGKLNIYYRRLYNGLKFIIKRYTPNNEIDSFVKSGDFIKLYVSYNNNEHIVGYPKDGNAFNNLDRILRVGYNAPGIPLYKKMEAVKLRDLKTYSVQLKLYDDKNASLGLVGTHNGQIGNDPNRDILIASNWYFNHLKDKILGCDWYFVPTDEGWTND
In experiment [2] the target is T1, tetanus neurotoxin (TeNT), authentic …. Kind of experiment: GT1b-TeNT inhibition ELISA. The source holds these as a separate data set. Background: In an ELISA, binding on a coated surface is turned into a signal by an enzyme label.
The target of experiment [3] is horse albumin (horse Alb) (horse, UniProt P35747 25-607). The experiment is described as follows: BLI ([…] (0.11 nm), […] (0.01 nm).
For experiment [4], the target named is T1, tetanus neurotoxin (TeNT), authentic …. Kind of experiment: ELISA: directly coated TeNT, anti-his6 PO.
Experiment [5] shares this target. The experiment is described as follows: ELISA: directly coated TeNT, anti-his6 PO. The source holds these as a separate data set.
Experiment [6] shares this target. The experiment is described as follows: ELISA: directly coated TeNT, goat anti-llama Ig PO.
Experiment [7] shares this target. The experiment is described as follows: ELISA: directly coated TeNT, goat anti-llama Ig PO. This is another data set of the same source.
Experiment [8] shares this target. Kind of experiment: BLI (Octet Red96): biotinylated SDA on SA sensor, TeNT as analyte. (BLI is a label-free optical method that tracks binding on a fibre tip over time.)
For experiment [9] the target is unchanged. The experiment is described as follows: bridging ELISA: coated TeNT, SDA, biotinylated TeNT, StrepPO (bivalent binding).
Experiment [10] shares this target. Described as above. The source holds these as a separate data set.
The target in experiment [11] is T2, mouse albumin (mouse, UniProt P07724 25-608). Kind of experiment: ELISA on coated albumin.
T2 sequence (P07724 25-608 limits assumed): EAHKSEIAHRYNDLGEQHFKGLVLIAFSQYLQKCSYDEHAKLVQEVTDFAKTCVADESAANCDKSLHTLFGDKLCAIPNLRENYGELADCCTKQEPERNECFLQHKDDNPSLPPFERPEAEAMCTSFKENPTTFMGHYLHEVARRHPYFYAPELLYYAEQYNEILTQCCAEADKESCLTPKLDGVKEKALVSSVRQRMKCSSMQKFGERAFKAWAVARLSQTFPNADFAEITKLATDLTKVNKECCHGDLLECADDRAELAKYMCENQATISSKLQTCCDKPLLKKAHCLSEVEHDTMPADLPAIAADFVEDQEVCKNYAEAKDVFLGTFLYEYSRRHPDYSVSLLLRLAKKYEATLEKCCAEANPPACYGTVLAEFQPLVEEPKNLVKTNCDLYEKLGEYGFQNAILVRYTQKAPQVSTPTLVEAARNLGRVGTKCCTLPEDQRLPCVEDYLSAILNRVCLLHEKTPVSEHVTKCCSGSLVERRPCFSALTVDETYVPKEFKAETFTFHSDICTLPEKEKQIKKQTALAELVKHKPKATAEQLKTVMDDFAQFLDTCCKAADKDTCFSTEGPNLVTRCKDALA
The target in experiment [12] is T3, swine albumin (swine, UniProt P08835 25-607).
T3 construct: also called Porcine albumin
T3 sequence (P08835 25-607 limits assumed): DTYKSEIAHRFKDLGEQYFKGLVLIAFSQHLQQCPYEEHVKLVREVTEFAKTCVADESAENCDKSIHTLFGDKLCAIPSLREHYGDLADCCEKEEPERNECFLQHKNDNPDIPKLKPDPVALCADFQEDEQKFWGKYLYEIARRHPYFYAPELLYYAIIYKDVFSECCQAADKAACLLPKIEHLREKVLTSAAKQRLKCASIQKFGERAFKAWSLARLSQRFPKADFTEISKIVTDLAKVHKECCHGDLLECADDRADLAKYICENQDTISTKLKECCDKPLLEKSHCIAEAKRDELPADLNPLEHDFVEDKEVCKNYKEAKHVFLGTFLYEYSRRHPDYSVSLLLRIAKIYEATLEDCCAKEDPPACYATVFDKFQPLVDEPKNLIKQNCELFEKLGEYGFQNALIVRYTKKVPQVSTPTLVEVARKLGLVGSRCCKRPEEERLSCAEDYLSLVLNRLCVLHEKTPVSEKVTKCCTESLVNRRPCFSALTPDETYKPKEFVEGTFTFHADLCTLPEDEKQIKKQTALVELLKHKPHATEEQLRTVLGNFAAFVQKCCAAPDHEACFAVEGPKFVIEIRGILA
The experiment is described as follows: ELISA on coated albumin.

In experiment [13] the target is T4, human albumin (human, UniProt P02768 25-609). Kind of experiment: ELISA on coated albumin.
The target in experiment [14] is T5, sheep albumin (sheep, UniProt P14639 25-607). Kind of experiment: ELISA on coated albumin.
Experiment [15] deals with T6, bovine albumin (bovine, UniProt P02769 25-607). The experiment is described as follows: ELISA on coated albumin.
Experiment [16] has as its target T7, chicken ovalbumin (chicken, UniProt P01012 2-386).
T7 construct: also called Chicken Alb
T7 sequence (looked up): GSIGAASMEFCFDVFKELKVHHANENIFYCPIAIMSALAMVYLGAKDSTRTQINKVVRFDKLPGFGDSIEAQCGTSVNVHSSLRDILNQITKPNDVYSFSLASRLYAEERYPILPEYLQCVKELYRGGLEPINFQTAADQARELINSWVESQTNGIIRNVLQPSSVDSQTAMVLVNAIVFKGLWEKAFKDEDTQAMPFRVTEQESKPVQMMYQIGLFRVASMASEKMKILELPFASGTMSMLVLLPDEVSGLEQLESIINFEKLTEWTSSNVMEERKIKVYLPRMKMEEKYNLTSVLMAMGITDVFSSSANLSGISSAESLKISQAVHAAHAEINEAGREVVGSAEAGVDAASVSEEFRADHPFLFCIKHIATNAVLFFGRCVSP
Kind of experiment: ELISA on coated albumin.

Experiment [17] addresses T8, horse albumin (horse, UniProt P35747 25-607).
T8 construct: also called Equine albumin
Kind of experiment: ELISA on coated albumin.

Experiment [18] addresses T9, dog albumin (dog, UniProt P49822 25-608).
T9 construct: also called Canine albumin
Kind of experiment: ELISA on coated albumin.

For experiment [19], the target named is T10, cat albumin (cat, UniProt P49064 25-608).
T10 construct: also called Feline albumin
The experiment is described as follows: ELISA on cat albumin captured from serum.

In experiment [20] the target is T2, mouse albumin. Kind of experiment: ELISA; A450 below 0.2 at highest SDA concentration.
In experiment [21] the target is T3, swine albumin. Kind of experiment: ELISA; A450 below 0.2 at highest SDA concentration.
Experiment [22] addresses T10, cat albumin. Kind of experiment: ELISA; A450 below 0.2 at highest SDA concentration.
Experiment [23] concerns the target T4, human albumin. Kind of experiment: ELISA; A450 below 0.2 at highest SDA concentration.
Experiment [24] has as its target T5, sheep albumin. Kind of experiment: ELISA; A450 below 0.2 at highest SDA concentration.
In experiment [25] the target is T6, bovine albumin. Kind of experiment: ELISA; A450 below 0.2 at highest SDA concentration.
The target of experiment [26] is T7, chicken ovalbumin. The experiment is described as follows: ELISA; A450 below 0.2 at highest SDA concentration.
Experiment [27] addresses T8, horse albumin. The experiment is described as follows: ELISA; A450 below 0.2 at highest SDA concentration.
Experiment [28] concerns the target T9, dog albumin. The experiment is described as follows: ELISA; A450 below 0.2 at highest SDA concentration.
Experiment [29] addresses T11, Tetanus neurotoxin (TeNT), authentic tetanus holotoxin (Clostridium tetani, UniProt P04958 2-1315).
Experiment [30] addresses T11, Tetanus neurotoxin (TeNT), authentic …. This is another data set of the same source.
Experiment [31] has as its target T12, Horse albumin (horse, UniProt P35747 25-607).
T12 construct: also called Equine albumin; Equine Alb
Kind of experiment: BLI (Octet Red96), biotinylated albumin on SA sensor, SDA as analyte.

In experiment [32] the target is Human albumin (human, UniProt P02768 25-609). The experiment is described as above.
For experiment [33], the target named is T13, Dog albumin (dog, UniProt P49822 25-608).
T13 construct: also called Canine albumin; Canine Alb
T13 sequence (P49822 25-608 limits assumed): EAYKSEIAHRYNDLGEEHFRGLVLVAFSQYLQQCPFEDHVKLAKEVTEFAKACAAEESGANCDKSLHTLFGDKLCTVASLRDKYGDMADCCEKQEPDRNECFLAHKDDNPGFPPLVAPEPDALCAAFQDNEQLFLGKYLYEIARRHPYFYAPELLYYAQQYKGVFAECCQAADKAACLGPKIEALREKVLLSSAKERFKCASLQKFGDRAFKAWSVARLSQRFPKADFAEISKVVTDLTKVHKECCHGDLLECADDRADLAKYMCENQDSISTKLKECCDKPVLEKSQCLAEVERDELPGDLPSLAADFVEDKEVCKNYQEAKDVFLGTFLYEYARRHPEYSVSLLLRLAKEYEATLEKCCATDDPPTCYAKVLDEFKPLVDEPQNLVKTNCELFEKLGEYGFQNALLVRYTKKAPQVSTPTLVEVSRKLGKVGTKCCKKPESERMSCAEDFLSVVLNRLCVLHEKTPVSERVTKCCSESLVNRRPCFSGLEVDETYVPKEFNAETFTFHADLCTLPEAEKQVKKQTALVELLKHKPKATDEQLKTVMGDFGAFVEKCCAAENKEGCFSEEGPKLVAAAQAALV
The experiment is described as follows: BLI (Octet Red96), biotinylated SDA on SA sensor, albumin as analyte.

The target of another experiment is T14, dog serum albumin (dog, UniProt P49822 25-608).
T14 construct: mature; also called dog Alb; Canine albumin
The experiment is described as follows: BLI, biotinylated SDA on SA sensors.

A further experiment addresses T15, horse serum albumin (horse, UniProt P35747 25-607).
T15 construct: mature; also called horse Alb; Equine albumin
The experiment is described as follows: BLI, biotinylated albumin on SA sensors.

The next experiment has as its target T16, human serum albumin (human, UniProt P02768 25-609).
T16 construct: mature; also called human Alb
The experiment is described as follows: BLI, biotinylated albumin on SA sensors.

Where two headings read alike, the source gives them in different places.

T9 sequence (P49822 25-608 limits assumed): as above
T8 sequence (P35747 25-607 limits assumed): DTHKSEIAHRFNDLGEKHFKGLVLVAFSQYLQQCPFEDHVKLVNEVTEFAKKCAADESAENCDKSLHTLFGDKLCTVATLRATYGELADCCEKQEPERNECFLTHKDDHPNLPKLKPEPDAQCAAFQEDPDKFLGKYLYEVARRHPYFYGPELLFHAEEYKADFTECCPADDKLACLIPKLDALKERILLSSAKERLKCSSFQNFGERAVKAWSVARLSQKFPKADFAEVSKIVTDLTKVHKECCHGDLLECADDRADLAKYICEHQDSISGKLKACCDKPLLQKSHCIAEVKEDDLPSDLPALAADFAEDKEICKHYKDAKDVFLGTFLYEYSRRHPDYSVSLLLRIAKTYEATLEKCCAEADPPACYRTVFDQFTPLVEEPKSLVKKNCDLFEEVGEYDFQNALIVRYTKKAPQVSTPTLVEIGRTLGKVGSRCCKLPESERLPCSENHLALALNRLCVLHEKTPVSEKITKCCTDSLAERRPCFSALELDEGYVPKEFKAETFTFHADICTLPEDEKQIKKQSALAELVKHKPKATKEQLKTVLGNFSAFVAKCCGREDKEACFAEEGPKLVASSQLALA
T11 sequence (P04958 2-457 limits assumed, chain 1 of 2): as the sequence (P04958 2-457 limits assumed, chain 1 of 2) above
T11 sequence (P04958 458-1315 limits assumed, chain 2 of 2): as the sequence (P04958 458-1315 limits assumed, chain 2 of 2) above

B1: SVT16L (VHH)
VHH: QVQLQESGGGSVQAGDSLRLSCAASGRTISNYAMGWFRQAPGKQREFVAAISRSDNTYYTDSVKGRFTISRDNAKNTLYLQMNSLKPEETAVYYCAADPNLMYESKWKYRALEAWGQGTLVTVSS
For the molecule B1, the “minimal absorbance value (GT1b-TeNT inhibition)” value in experiment [1] amounted to 0.18 A450. In [2], the “Effective SDA Concentration at A450 0.56” value is 21 ng/mL. In addition, the binding result in experiment [3] is “no binding (tested: 100 nM)”. Besides, the maximal absorbance value in experiment [4] was determined as 1.56 A450; in experiment [6] it was 0.44 A450; in [9], 0.18 A450. The “Effective SDA Concentration at A450 0.15” value in experiment [5] was 1.4 ng/mL; in experiment [7] it was 5 ng/mL. In addition, in experiment [8], the Kd was determined as 0.339 nM. The molecule also gave an off-rate constant (koff) in experiment [8] of 0.000311 s⁻¹. Besides, in experiment [8], the association rate constant (kon) was 916000 M⁻¹ s⁻¹. Moreover, the “Effective SDA Concentration at A450 0.3” value in [10] is more than 1000 ng/mL.

B2: SVT06L (VHH)
VHH: QVQLQESGGGSVQAGGSLRLSCTASELSYDDYTIAWFRRAAGEGRVEDGEGVASITKSYDRAYDNKINYGHSVKGRFTISRDNAKNTVYLQMTDLLPSDTAVYYCALDITPPGGVGASLTEGFLFDYWGQGTQVTVSS
B2: the “SDA Effective Concentration resulting in A450 nm = 0.2” value in the experiment with mouse albumin [11], with swine albumin [12], in the experiment with human albumin [13], in the experiment with sheep albumin [14], with bovine albumin [15] and in the experiment with chicken ovalbumin [16] was more than 1000 ng/mL in each case. In addition, the “SDA Effective Concentration resulting in A450 nm = 0.2” value with horse albumin [17] and in the experiment with dog albumin [18] was more than 1000 ng/mL in each case. Also, the “maximal absorbance value at 450 nm” value with mouse albumin [11] turned out to be 0.073 A450; in the experiment with swine albumin [12], 0.08 A450; with human albumin [13] it was 0.065 A450; with sheep albumin [14], 0.06 A450; in the experiment with bovine albumin [15], 0.051 A450; with chicken ovalbumin [16], 0.057 A450. In addition, the “maximal absorbance value at 450 nm” value in the experiment with horse albumin [17] was 0.056 A450; in the experiment with dog albumin [18] it was 0.053 A450; with cat albumin [19], 0.099 A450. Also, the binding result with mouse albumin [20], with swine albumin [21], in the experiment with cat albumin [22], with human albumin [23], with sheep albumin [24] and in the experiment with bovine albumin [25] was “no binding (tested: 1000 ng/ml)” each time. In addition, the binding result with chicken ovalbumin [26], with horse albumin [27] and with dog albumin [28] was “no binding (tested: 1000 ng/ml)” throughout.

B3: SVT15-3FW4M-GS3-SVT06-GS2-SVG13M5-H6 (bispecific antibody)
chain: QVQLQESGGGLVQTGGSLRLSCRASGRAFANYHFGWFRQAPGKDREFVASISWKGGSTYYANFALGRFTSSVDRAESSVYLQMSGLTPEDTATYYCAAHDGGDWNYHTGMDYWGQGTQVTVSSGGGGSGGGGSGGGGSQVQLQESGGGSVQAGGSLRLSCTASELSYDDYTIAWFRRAAGEGRVEDGEGVASITKSYDRAYDNKINYGHSVKGRFTISRDNAKNTVYLQMTDLLPSDTAVYYCALDITPPGGVGASLTEGFLFDYWGQGTQVTVSSGGGGSGGGSEVQLVESGGGLVQPGGSLRLSCEASGFTFDDYGMSWVRQAPGKGLEWVSSLTPNGGSTYYADSVKGRFTISRDNAKNTLYLQMNSLKPEDTALYYCAKNSYYGAMDYRGQGTQVTVSSHHHHHH
On to B3, for which the equilibrium dissociation constant (Kd) is less than 0.00041 nM in [29] and 0.0229 nM in experiment [30]. Besides, the results for the koff in experiment [29] and in experiment [30] were less than 1.99e-07 s⁻¹ and 2.73e-05 s⁻¹, respectively. Moreover, the kon in [29] was 484000 M⁻¹ s⁻¹; in experiment [30], 1.19e+06 M⁻¹ s⁻¹. Besides, the results for the binding result with Horse albumin [31], in the experiment with Human albumin [32] and with Dog albumin [33] were “no binding (tested: 100 nM)”, “no binding (tested: 100 nM)” and “no binding (tested: 16-500 nM)”, respectively.

B4: SVT15-3FW4M-GS3-SVT06-GS2-SVG13M5-H6 (bispecific antibody)
chain: B3 chain
For the molecule B4, the values for the binding result with dog serum albumin, with horse serum albumin and in the experiment with human serum albumin were “no binding (tested: 500 nM)”, “no binding (tested: 100 nM)” and “no binding (tested: 100 nM)”, respectively.
